US9605266

Biological target: C-C chemokine receptor type 5 (CCR5) (Homo sapiens) (UniProt P51681)
Assay: flow
Details: 2'-F pyrimidines (2'-F-C, 2'-F-U), negative control

Sequence of C-C chemokine receptor type 5 (CCR5) (Homo sapiens) (P51681 whole entry): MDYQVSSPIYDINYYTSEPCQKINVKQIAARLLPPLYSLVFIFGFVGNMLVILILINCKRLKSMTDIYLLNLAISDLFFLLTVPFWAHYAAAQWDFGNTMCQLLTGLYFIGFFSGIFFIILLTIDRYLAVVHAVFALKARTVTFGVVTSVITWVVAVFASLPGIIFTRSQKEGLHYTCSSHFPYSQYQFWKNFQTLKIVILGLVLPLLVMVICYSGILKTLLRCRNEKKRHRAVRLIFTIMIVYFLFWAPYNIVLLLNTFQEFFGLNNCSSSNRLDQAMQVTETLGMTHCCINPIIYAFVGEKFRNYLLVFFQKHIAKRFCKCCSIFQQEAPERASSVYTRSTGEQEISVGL

Question: How did the binding signal (% Cy3-positive cells) (untreated 0.076%) turn out when “GGGAGGACGAUGCGGNNNNNNNNNNNNNNNNNNNNCAGACGACUCGCCCGA [0-RNA pool (starting library)]” was run?
Answer: 0.808

Question: And the binding signal (% Cy3-positive cells) (untreated 0.191%)?
Answer: 7.63
